{
  "source": "IntAct's records for PubMed 21224891",
  "parents": {"B1": {"name": "X-linked retinitis pigmentosa GTPase regulator-interacting protein 1 (Homo sapiens), Q96KN7 (parent)", "chain": "MSHLVDPTSGDLPVRDIDAIPLVLPASKGKNMKTQPPLSRMNREELEDSFFRLREDHMLVKELSWKQQDEIKRLRTTLLRLTAAGRDLRVAEEAAPLSETARRGQKAGWRQRLSMHQRPQMHRLQGHFHCVGPASPRRAQPRVQVGHRQLHTAGAPVPEKPKRGPRDRLSYTAPPSFKEHATNENRGEVASKPSELVSGSNSIISFSSVISMAKPIGLCMPNSAHIMASNTMQVEEPPKSPEKMWPKDENFEQRSSLECAQKAAELRASIKEKVELIRLKKLLHERNASLVMTKAQLTEVQEAYETLLQKNQGILSAAHEALLKQVNELRAELKEESKKAVSLKSQLEDVSILQMTLKEFQERVEDLEKERKLLNDNYDKLLESMLDSSDSSSQPHWSNELIAEQLQQQVSQLQDQLDAELEDKRKVLLELSREKAQNEDLKLEVTNILQKHKQEVELLQNAATISQPPDRQSEPATHPAVLQENTQIEPSEPKNQEEKKLSQVLNELQVSHAETTLELEKTRDMLILQRKINVCYQEELEAMMTKADNDNRDHKEKLERLTRLLDLKNNRIKQLEGILRSHDLPTSEQLKDVAYGTRPLSLCLETLPAHGDEDKVDISLLHQGENLFELHIHQAFLTSAALAQAGDTQPTTFCTYSFYDFETHCTPLSVGPQPLYDFTSQYVMETDSLFLHYLQEASARLDIHQAMASEHSTLAAGWICFDRVLETVEKVHGLATLIGAGGEEFGVLEYWMRLRFPIKPSLQACNKRKKAQVYLSTDVLGGRKAQEEEFRSESWEPQNELWIEITKCCGLRSRWLGTQPSPYAVYRFFTFSDHDTAIIPASNNPYFRDQARFPVLVTSDLDHYLRREALSIHVFDDEDLEPGSYLGRARVPLLPLAKNESIKGDFNLTDPAEKPNGSIQVQLDWKFPYIPPESFLKPEAQTKGKDTKDSSKISSEEEKASFPSQDQMASPEVPIEAGQYRSKRKPPHGGERKEKEHQVVSYSRRKHGKRIGVQGKNRMEYLSLNILNGNTPEQVNYTEWKFSETNSFIGDGFKNQHEEEEMTLSHSALKQKEPLHPVNDKESSEQGSEVSEAQTTDSDDVIVPPMSQKYPKADSEKMCIEIVSLAFYPEAEVMSDENIKQVYVEYKFYDLPLSETETPVSLRKPRAGEEIHFHFSKVIDLDPQEQQGRRRFLFDMLNGQDPDQGHLKFTVVSDPLDEEKKECEEVGYAYLQLWQILESGRDILEQELDIVSPEDLATPIGRLKVSLQAAAVLHAIYKEMTEDLFS", "partner": "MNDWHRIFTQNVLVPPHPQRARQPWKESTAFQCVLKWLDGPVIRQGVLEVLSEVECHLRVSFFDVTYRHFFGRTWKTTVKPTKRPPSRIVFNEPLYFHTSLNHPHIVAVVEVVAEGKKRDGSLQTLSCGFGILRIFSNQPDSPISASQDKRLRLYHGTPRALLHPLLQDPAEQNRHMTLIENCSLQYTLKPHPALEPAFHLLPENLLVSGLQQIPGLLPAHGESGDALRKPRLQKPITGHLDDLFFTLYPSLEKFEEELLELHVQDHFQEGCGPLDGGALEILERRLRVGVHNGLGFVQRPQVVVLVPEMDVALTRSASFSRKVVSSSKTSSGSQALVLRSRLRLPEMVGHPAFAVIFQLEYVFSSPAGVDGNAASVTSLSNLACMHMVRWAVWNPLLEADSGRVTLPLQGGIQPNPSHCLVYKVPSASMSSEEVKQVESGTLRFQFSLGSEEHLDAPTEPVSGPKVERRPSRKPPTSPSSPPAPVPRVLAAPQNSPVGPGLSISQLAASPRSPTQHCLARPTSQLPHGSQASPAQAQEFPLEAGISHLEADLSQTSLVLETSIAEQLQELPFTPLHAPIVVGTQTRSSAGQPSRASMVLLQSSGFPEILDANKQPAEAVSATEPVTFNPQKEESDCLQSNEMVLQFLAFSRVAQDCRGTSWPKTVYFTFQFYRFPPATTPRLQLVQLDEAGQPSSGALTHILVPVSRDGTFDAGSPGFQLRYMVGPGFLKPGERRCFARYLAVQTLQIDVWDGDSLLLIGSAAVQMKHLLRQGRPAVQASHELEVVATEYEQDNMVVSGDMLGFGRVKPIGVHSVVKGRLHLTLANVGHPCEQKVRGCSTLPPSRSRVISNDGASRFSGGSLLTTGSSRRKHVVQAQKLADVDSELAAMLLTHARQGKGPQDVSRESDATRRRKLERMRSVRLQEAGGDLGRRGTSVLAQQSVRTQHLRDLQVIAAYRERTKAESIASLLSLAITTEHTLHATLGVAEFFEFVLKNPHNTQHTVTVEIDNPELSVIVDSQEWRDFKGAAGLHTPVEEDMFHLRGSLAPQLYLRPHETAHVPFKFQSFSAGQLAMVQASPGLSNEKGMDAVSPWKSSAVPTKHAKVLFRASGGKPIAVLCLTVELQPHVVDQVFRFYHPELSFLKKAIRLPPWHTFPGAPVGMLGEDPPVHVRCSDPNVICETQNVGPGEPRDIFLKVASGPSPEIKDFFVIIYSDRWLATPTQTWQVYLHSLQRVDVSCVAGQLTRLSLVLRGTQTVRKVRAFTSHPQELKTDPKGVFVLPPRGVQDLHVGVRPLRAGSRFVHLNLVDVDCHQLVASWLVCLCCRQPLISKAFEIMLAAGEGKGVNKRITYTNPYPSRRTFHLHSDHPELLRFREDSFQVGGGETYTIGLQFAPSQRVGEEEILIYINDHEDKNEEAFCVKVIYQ"}},
  "data": [
    {"variants_of": "B1", "conditions": "with nphp4_human NPHP4, O75161", "values": [
      {"variant": "Q589H", "effect of a mutation on the interaction": "with no effect"},
      {"variant": "T806I", "effect of a mutation on the interaction": "decreasing interaction strength"},
      {"variant": "A764V", "effect of a mutation on the interaction": "with no effect"},
      {"variant": "R812H", "effect of a mutation on the interaction": "increasing interaction strength"},
      {"variant": "A837G", "effect of a mutation on the interaction": "decreasing interaction strength"},
      {"variant": "I838V", "effect of a mutation on the interaction": "decreasing interaction strength"},
      {"variant": "R598Q", "effect of a mutation on the interaction": "decreasing interaction strength"},
      {"variant": "A635G", "effect of a mutation on the interaction": "decreasing interaction strength"}
    ]},
    {"variants_of": "B1", "conditions": "with nphp4_human NPHP4, O75161", "remark": "another data set of the same source", "values": [
      {"variant": "R598Q", "effect of a mutation on the interaction": "disrupting interaction strength"}
    ]}
  ]
}
